Where two headings read alike, the source gives them in different places. A value given as a limit tells only on which side of the number the result lay.

This is an account of results in US20160185859A1 (Pfizer, published 2016).

Assay [1] addresses T1, human 5T4 antigen (human, UniProt Q13641 32-355, limits assumed).
T1 sequence: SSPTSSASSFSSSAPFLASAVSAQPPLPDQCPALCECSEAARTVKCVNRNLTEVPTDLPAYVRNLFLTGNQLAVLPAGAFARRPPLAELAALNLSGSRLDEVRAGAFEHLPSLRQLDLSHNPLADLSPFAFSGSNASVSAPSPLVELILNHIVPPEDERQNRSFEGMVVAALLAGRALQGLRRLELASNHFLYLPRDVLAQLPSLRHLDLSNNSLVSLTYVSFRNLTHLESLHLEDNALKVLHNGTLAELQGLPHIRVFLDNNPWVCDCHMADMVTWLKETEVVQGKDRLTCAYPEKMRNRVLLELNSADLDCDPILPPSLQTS
The assay can be described thus: ELISA; inhibition of biotinylated chimeric A1 antibody binding to human 5T4. (In an ELISA, binding on a coated surface is turned into a signal by an enzyme label.)

The target in assay [2] is T1, human 5T4 antigen. Put plainly: BIACORE (SPR); human 5T4 antigen immobilized on CM5 chip. The procedure: (§1) To assess the binding specificity and affinity of the A1, A2, and A3 antibodies, BIACORE® analysis was performed using human 5T4 antigen immobilized on a CM5 chip. BIACORE® technology utilizes changes in the refractive index at the surface layer upon binding of the antibody to the 5T4 antigen immobilized on the layer. Binding is detected by surface plasmon resonance (SPR) of laser light refracting from the surface. Analysis of the signal kinetics on rate and off rate allows discrimination between non-specific and specific interactions. The H8 anti-5T4 antibody was used as a control. H8 is a hybridoma-generated monoclonal mouse IgG1 antibody described in PCT International Publication No. WO 98/55607 and in Forsberg et al. (1997) J. Biol. Chem. 272(19):[…].
To assess the binding specificity and affinity of the chimeric and humanized H8, A1, A2, and A3 antibodies, BIACORE® analysis was performed using human 5T4 antigen immobilized on a CM5 chip. See Example 2.
In general terms: Surface plasmon resonance follows binding to a sensor surface in real time, without labels.

Assay [3] has as its target T1, human 5T4 antigen. The description is as above. Here is the method: as §1
The source holds these as a separate data set.

The target of assay [4] is T2, human 5T4 antigen expressed on cells (PC14PE6 cells; MDAMB435/5T4 cells) (human, UniProt Q13641 32-420).
T2 construct: PC14PE6 are human non-small cell lung cancer cells; also called 5T4-expressing PC14PE6 cells
T2 sequence: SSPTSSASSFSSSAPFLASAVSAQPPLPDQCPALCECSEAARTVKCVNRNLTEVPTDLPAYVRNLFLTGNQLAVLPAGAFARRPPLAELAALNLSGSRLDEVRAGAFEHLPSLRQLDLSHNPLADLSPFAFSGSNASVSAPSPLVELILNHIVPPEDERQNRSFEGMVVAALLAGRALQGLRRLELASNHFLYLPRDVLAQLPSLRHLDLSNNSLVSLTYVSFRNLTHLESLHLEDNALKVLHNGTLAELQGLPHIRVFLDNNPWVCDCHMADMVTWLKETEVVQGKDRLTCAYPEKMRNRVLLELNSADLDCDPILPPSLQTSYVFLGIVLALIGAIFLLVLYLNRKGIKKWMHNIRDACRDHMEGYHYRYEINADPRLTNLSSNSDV
Put plainly: FACS of PC14PE6 cells.

In assay [5] the target is T1, human 5T4 antigen. The assay can be described thus: BIACORE; human 5T4 chip saturated with first antibody H8 (competitor). Here is the method: Epitope mapping of the H8, A1, A2, and A3 antibodies was also performed using BIACORE® using a CM5 chip with bound human 5T4 antigen. The chip was saturated with H8, A1, A2, or A3 antibody, and a first response was measured. The chip was then saturated with a second antibody from among the H8, A1, A2, and A3 antibodies, and a second response was measured. For multiple experiments, the chip was regenerated by dissociation of the bound antibodies in 10 mM glycine, pH 1.5, followed by a buffer wash. The percentages shown are the response units measured upon binding by a second antibody directly to the CM5 chip divided by the response units measured upon binding of the second antibody to a CM5 chip saturated with a first antibody.

In assay [6] the target is T1, human 5T4 antigen. Put plainly: BIACORE; human 5T4 chip saturated with first antibody humanized H8 (competitor); 37.5 s after injection of second antibody.
Assay [7] concerns the target T1, human 5T4 antigen. The assay can be described thus: BIACORE; human 5T4 chip saturated with first antibody humanized H8 (competitor); 19 s after injection of second antibody.
Assay [8] deals with T1, human 5T4 antigen. The assay can be described thus: BIACORE; human 5T4 chip saturated with first antibody humanized H8 (competitor); 75 s after injection of second antibody.
Assay [9] addresses T1, human 5T4 antigen. The assay can be described thus: BIACORE; human 5T4 chip saturated with first antibody humanized H8 (competitor); 300 s after injection of second antibody.
The target of assay [10] is T1, human 5T4 antigen. Put plainly: BIACORE; human 5T4 chip saturated with first antibody humanized H8 (competitor); 150 s after injection of second antibody.
In assay [11] the target is T3, cynomologous monkey 5T4 ectodomain Fc (cynomologous monkey; human, UniProt Q4R8Y9 32-355).
T3 construct: not shown: Fc constant regions from human IgG1
T3 chain: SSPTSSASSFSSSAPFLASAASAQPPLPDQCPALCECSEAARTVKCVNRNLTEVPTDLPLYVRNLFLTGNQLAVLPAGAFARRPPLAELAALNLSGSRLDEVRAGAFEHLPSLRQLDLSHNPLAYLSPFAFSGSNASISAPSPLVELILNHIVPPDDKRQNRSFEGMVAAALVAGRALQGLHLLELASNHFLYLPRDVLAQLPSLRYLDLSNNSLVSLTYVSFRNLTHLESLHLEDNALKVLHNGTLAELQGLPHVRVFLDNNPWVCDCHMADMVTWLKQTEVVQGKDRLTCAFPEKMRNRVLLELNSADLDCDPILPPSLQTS
The assay can be described thus: ELISA; 5T4 ectodomain/Fc fusion protein from transiently transfected COS-1 cells; given as ED50. Here is the method: (§2) To assay binding of anti-5T4 antibodies, 5T4 ectodomain/Fc fusion proteins were transiently transfected into COS-1 cells, and ELISA assays were performed. Non-relevant human IgG4 and IgG1 antibodies were used as controls.

Assay [12] has as its target T4, human 5T4 ectodomain Fc (human, UniProt Q13641 32-355).
T4 construct: also called human 5T4 ectodomain Fc fusion protein; Human 5T4 Ectodomain/Fc Fusion; not shown: Fc constant regions from human IgG1
T4 sequence: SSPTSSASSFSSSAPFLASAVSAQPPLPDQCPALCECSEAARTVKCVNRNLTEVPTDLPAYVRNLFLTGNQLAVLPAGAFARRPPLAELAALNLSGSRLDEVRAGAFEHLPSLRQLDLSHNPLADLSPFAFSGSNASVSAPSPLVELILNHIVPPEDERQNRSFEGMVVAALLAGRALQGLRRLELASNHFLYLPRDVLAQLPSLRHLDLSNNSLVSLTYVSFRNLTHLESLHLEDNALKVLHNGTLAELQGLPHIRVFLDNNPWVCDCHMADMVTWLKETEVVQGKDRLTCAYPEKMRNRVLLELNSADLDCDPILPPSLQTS
The assay is described as above. Here is the method:
as §2

Assay [13] deals with chimpanzee 5T4 ectodomain Fc (chimpanzee; human, UniProt P01857 99-330 = IgG part). The description is as above. Here is the method:
as §2

Assay [14] has as its target T1, human 5T4 antigen. Put plainly: BIACORE; human 5T4 chip saturated with first antibody humanized H8 (competitor); 600 s after injection of second antibody.

B1: huA1 VH v2.0 + huA1 VL v1.1 (antibody, V domains shown)
VH: EVQLVESGGGLVQPGGSLRLSCAASGYTFTNFGMNWVRQAPGKGLEWVAWINTNTGEPRYAEEFKGRFTISRDNAKNSLYLQMNSLRAEDTAVYYCARDWDGAYFFDYWGQGTLVTVSS
VL: DIVMTQSPDSLAVSLGERATINCKASQSVSNDVAWYQQKPGQPPKLLIYFATNRYTGVPDRFSGSGYGTDFTLTISSLQAEDVAVYYCQQDYSSPWTFGQGTKVEIK
notes: also called humanized A1 VH version 2.0 + humanized A1 VL version 1.1
Usually IC50 stands for the concentration that gives 50% inhibition. In assay [1], B1 had an IC50 of 28 nM.

B2: huA1 VH v2.0 + huA1 VL v2.4 (antibody, V domains shown)
VH: EVQLVESGGGLVQPGGSLRLSCAASGYTFTNFGMNWVRQAPGKGLEWVAWINTNTGEPRYAEEFKGRFTISRDNAKNSLYLQMNSLRAEDTAVYYCARDWDGAYFFDYWGQGTLVTVSS
VL: DIQMTQSPSSLSASVGDRVTITCKASQSVSNDVAWYQQKPGKAPKLLIYFATNRYTGVPSRFSGSGYGTDFTLTISSLQPEDFATYYCQQDYSSPWTFGQGTKVEIK
Regarding B2, in [1], the IC50 worked out at 16 nM.

B3: huA1 VH v2.0 + huA1 VL v3.1 (antibody, V domains shown)
VH: EVQLVESGGGLVQPGGSLRLSCAASGYTFTNFGMNWVRQAPGKGLEWVAWINTNTGEPRYAEEFKGRFTISRDNAKNSLYLQMNSLRAEDTAVYYCARDWDGAYFFDYWGQGTLVTVSS
VL: EIVMTQSPATLSLSPGERATLSCKASQSVSNDVAWYQQKPGQAPRLLIYFATNRYTGIPARFSGSGYGTDFTLTISSLQPEDFAVYYCQQDYSSPWTFGQGTKVEIK
In turn, B3 came in with an IC50 in [1] of 27 nM.

B4: chimeric A1 antibody bearing C67F mutation (antibody, V domains shown)
VH: QIQLVQSGPELKKPGETVKISCKASGYTFTNFGMNWVKQGPGEGLKWMGWINTNTGEPRYAEEFKGRFAFSLETTASTAYLQINNLKNEDTATYFCARDWDGAYFFDYWGQGTTLTVSS
VL: SIVMTQTPKFLLVSAGDRVTITCKASQSVSNDVAWYQQKPGQSPKLLINFATNRYTGVPNRFTGSGYGTDFTFTISTVQAEDLALYFCQQDYSSPWTFGGGTKLEIK
notes: also called Chimeric A1 + C67F; ChiA1+C67F
The term Kd denotes the concentration at which binding is half-saturated. As usually defined, the koff is the first-order rate constant of dissociation. As a reminder, the kon is the rate constant with which the complex forms. In assay [2], B4 registered a Ka of 2.6e+09 M⁻¹, a Kd of 0.38 nM, a koff of 6.3e-05 s⁻¹ and a kon of 170000 M⁻¹ s⁻¹.

B5: murine anti-5T4 antibody A2 (antibody, V domains shown)
VH: QVQLQQSRPELVKPGASVKMSCKASGYTFTDYVISWVKQRTGQGLEWIGEIYPGSNSIYYNEKFKGRATLTADKSSSTAYMQLSSLTSEDSAVYFCAMGGNYGFDYWGQGTTLTVSS
VL: QIVLTQSPAIMSASLGERVTLTCTASSSVNSNYLHWYQQKPGSSPKLWIYSTSNLASGVPARFSGSGSGTSYSLTISSMEAEDAATYYCHQYHRSPLTFGAGTKLELK
notes: also called muA2
Take B5: in [3], the Ka worked out at 6.5e+07 M⁻¹; the affinity, expressed as Kd, was 15 nM; the koff was 0.00087 s⁻¹; the kon stood at 56000 M⁻¹ s⁻¹. Besides, in assay [4], the “Mean Cellular Flouresence” value came out at 7. Also, in assay [5], the “percentage response of second antibody following saturation with first antibody” value is 99%.

B6: chimeric A3 antibody (antibody, human IgG4, V domains shown)
VH: EVQLVESGGGLVQPKGSLKLSCAASGFTFNTYAMNWVRQAPGKGLEWVARIRSKSNNYATYYADSVKDRFTISRDDSQSMLYLQMNNLKTEDTAMYCCVRQWDYDVRAMNYWGQGTSVTVSS
VL: DIVMTQSHIFMSTSVGDRVSITCKASQDVDTAVAWYQQKPGQSPKLLIYWASTRLTGVPDRFTGSGSGTDFTLTISNVQSEDLADYFCQQYSSYPYTFGGGTKLEIK
notes: also called ChiA3; ChiA3 γ4
The EC50 is the midpoint of the concentration-response curve. B6: the “percentage of second antibody bound following saturation with first antibody” value in assay [6] came to 51.2%; in assay [7], 46.2%; in [8], 58.4%; in [9] it was 76.2%; in [10], 67.5%; in assay [14], 83.6%. Further, the half-maximal effective concentration (EC50) came out at 0.23 nM in assay [11], 0.2 nM in assay [12] and 0.2 nM in assay [13]. Besides, the Ka in assay [2] is around 5.4e+09 M⁻¹. Further, the Kd in [2] was at most 0.18 nM. The molecule further had a koff in assay [2] of at most 1e-05 s⁻¹. This molecule showed a kon in assay [2] of around 54000 M⁻¹ s⁻¹.

B7: murine anti-5T4 antibody A3 (antibody, V domains shown)
VH: EVQLVESGGGLVQPKGSLKLSCAASGFTFNTYAMNWVRQAPGKGLEWVARIRSKSNNYATYYADSVKDRFTISRDDSQSMLYLQMNNLKTEDTAMYCCVRQWDYDVRAMNYWGQGTSVTVSS
VL: DIVMTQSHIFMSTSVGDRVSITCKASQDVDTAVAWYQQKPGQSPKLLIYWASTRLTGVPDRFTGSGSGTDFTLTISNVQSEDLADYFCQQYSSYPYTFGGGTKLEIK
notes: also called muA3
In assay [3], B7 returned a Ka of 4.6e+08 M⁻¹, a Kd of 2.2 nM, a koff of 5.2e-05 s⁻¹ and a kon of 24000 M⁻¹ s⁻¹. In addition, the “Mean Cellular Flouresence” value in assay [4] was 27. In assay [5], the “percentage response of second antibody following saturation with first antibody” value was determined as 73%.

B8: chimeric A3 antibody bearing C91Y mutation (antibody, V domains shown)
VH: EVQLVESGGGLVQPKGSLKLSCAASGFTFNTYAMNWVRQAPGKGLEWVARIRSKSNNYATYYADSVKDRFTISRDDSQSMLYLQMNNLKTEDTAMYYCVRQWDYDVRAMNYWGQGTSVTVSS
VL: DIVMTQSHIFMSTSVGDRVSITCKASQDVDTAVAWYQQKPGQSPKLLIYWASTRLTGVPDRFTGSGSGTDFTLTISNVQSEDLADYFCQQYSSYPYTFGGGTKLEIK
notes: also called Chimeric A3 + C91Y; ChiA3+C91Y
In [2], B8 had a Ka of 1.7e+09 M⁻¹, a Kd of 0.59 nM, a koff of 1.6e-05 s⁻¹ and a kon of 27000 M⁻¹ s⁻¹.
